What all share (details): remark: other sources report otherwise
For test [1], the target named is Bt-SARS-CoV-2 Spike Protein (RBD)(R319-F541).hFc (SARS-CoV-2).
The target in test [2] is Bt-SARS-CoV-2 Spike Protein (RBD)(R319-F541).mFc (SARS-CoV-2).
The target of test [3] is SARS-CoV-2 RBD extracellular domain expressed with a C-terminal myc-myc-hexahistidine tag (SARS-COV-2 RBD-MMH) (SARS-CoV-2).
The target of test [4] is SARS-CoV-2 RBD extracellular domain expressed with a C-terminal human IgG1 (SARS-COV-2 RBD-hFc) (SARS-CoV-2).
Test [5] deals with Human SARS Coronavirus Spike Protein (Receptor Binding Domain) rabbit Fc (Sino 40150-V31B2) (Human SARS Coronavirus), P59594. The test is described as follows: Luminex bead assay, antigen on microspheres, antibody supernatant.
Test [6] has as its target Human SARS Coronavirus Spike Protein (Receptor Binding Domain, His Tag) (Sino 40150-V08B2) (Human SARS Coronavirus), P59594. The test is described as above.
Test [7] has as its target Human SARS Coronavirus Spike S1 Subunit Protein (His Tag) (Sino 40150-V08B1) (Human SARS Coronavirus), P59594. The description is as above.
Test [8] has as its target MERS-CoV (NCoV/Novel coronavirus) Spike Protein S1 Protein (aa 1-725, His Tag) (Sino 40069-V08B1) (MERS-CoV), K9N5Q8. The test is described as above.
The target in test [9] is MERS-CoV (NCoV/Novel coronavirus) Spike Protein fragment (RBD, aa 367-606, His Tag) (Sino 40071-V08B1) (MERS-CoV), K9N5Q8. The test is described as above.
For test [10], the target named is SARS-CoV-2 Spike Protein (RBD)(R319-F541).hFc (SARS-CoV-2). The description is as above.
Test [11] has as its target SARS-CoV-2 Spike Protein (RBD)(R319-F541).mFc (SARS-CoV-2). The description is as above.
The target in test [12] is SARS-CoV-2 spike protein receptor binding domain (amino acids Arg319 to Phe541) expressed with the F (SARS-CoV-2).

What is called Kd is the constant that tells how readily two partners part at equilibrium. Read a low Kd as a tighter complex. In general, t½ refers to how long it takes for the measured level to halve. A lower t½ goes with fast loss.

B1: mAb10998 (antibody, V domains shown)
VH: EVQLVESGGGLVHPGGSLRLSCAASGLTVSSNYMSWVRQAPGKGLEWVSVIYSGGSTYYADSVKGRFTISRHNSKNTLFLQMNSLRAEDTAVYYCARDRPITGTTLDVWGQGTTVTVSS
VL: DIQMTQSPSSLFASVGDRVTITCRASQSISSYLNWYQQKPGKAPKLLIYAASSLQSGVPSRFSGSGSGTDFTLTISSLQPEDFAFYYCQQTYSTPPITFGQGTRLEIK
As for B1, the Binding signal (MFI) in test [1] is 467 MFI; in test [2] it was 2230 MFI; in test [5] it was 29 MFI; in test [6], 37 MFI; in test [7], 16 MFI; in test [8], 19 MFI. Also, the Binding signal (MFI) was found to be 24 MFI in test [9], 1740 MFI in test [10] and 2230 MFI in [11]. Besides, the results for the dissociation constant (Kd) in test [3] and in test [4] were 117 nM and 1.58 nM, respectively. The t½ in test [3] was 0.5 min; in test [4], 22.2 min.

B2: mAb11006 (antibody, V domains shown)
VH: EVQLVESGGGLVQPGGSLRLSCAASGFIVSRNYMSWVRQAPGKGLEWVSVIYSGGSTFYADSVKGRFTISRHNSKNTLYLQMNSLKAEDTAVYYCARELRGYFDYWGQGTLVTVSS
VL: DIQLTQSPSFLSASVGDRVTITCWASQGISSYLAWYQQKPGKAPKLLIYAASTLQSGVPSRFSGSGSGTEFTLTISSLQPEDFATYYCQLLNSYPYTFGQGTKLEIK
As for B2, the Binding signal (MFI) in test [1] came to 3810 MFI; in test [2] it was 1400 MFI; in test [5], 615 MFI; in test [6], 667 MFI; in test [7] it was 339 MFI; in [8] it was 18 MFI. Further, the Binding signal (MFI) amounted to 15 MFI in [9], 3980 MFI in test [10] and 2870 MFI in [11]. For the same molecule, the equilibrium dissociation constant (Kd) is 4.1 nM in [3] and under 0.0532 nM in test [4]. Further, the values for the t½ in test [3] and in [4] were 31.5 min and over 1160 min, respectively.

B3: mAb11008 (antibody, V domains shown)
VH: EVQLVESGGGLVQPGGSLRLSCAASGFTVSSNYMTWVRQAPGKGLEWVSVIYSGGSTFYADSVKGRFTISRHNSENTLYLQMNSLRAEDTAVYYCARDLAAAGTDYWGQGALVTVSS
VL: DIQLTQSPSFLSASVGDRVTITCWASQGISSYLAWYQQKPGKAPKLLIYAASTLQSGVPSRFSGSGSGTEFTLTISSLQPDDFATYYCQHLNSYLYTFGQGTKLEIK
In the case of B3, the Binding signal (MFI) came to 4110 MFI in test [1]; 3050 MFI in [2]; 120 MFI in test [5]; 174 MFI in test [6]; 31 MFI in test [7]; 18 MFI in test [8]. For the same molecule, the Binding signal (MFI) in test [9] worked out at 20 MFI; in test [10] it was 2570 MFI; in [11], 4260 MFI. For the same molecule, the values for the Kd in test [3] and in [4] were 59.4 nM and 0.715 nM, respectively. Moreover, the t½ in test [3] was determined as 2.9 min; in [4], 100 min.

B4: mAb11004 (antibody, V domains shown)
VH: QVQLVESGGGVVQPGRSLRLSCVASGFTFSIYGMDWVRQAPGKGLEWVAVISYDGSNKYYADSVKGRFTISRDNSKNTLYLQMNSLRPEDTAVYYCAKDREAAADAFDIWGQGTMVTVSS
VL: DIQMTQSPSSVSASVGDRVTITCRASQGISSWLAWYQQKPGKAPKLLIYAASSLHSGVPSRFSGSGSGTDFTLTISSLQPEDFATYYCQQANSFRLTFGGGTKVEIK
For B4, the Binding signal (MFI) in test [1] is 7620 MFI; in test [2], 4300 MFI; in test [5], 5520 MFI; in test [6] it was 740 MFI; in test [7] it was 33 MFI; in [8], 17 MFI. Besides, the Binding signal (MFI) amounted to 26 MFI in [9], 4880 MFI in [10] and 4580 MFI in test [11]. Also, the figures for the Kd in test [3] and in test [4] were 16.6 nM and 0.191 nM, respectively. For the same molecule, the figures for the t½ in test [3] and in [4] were 3.7 min and 174 min, respectively. In test [12], the SARS-CoV-2 RBD-hFc Binding to His presented ACE2 (Abs 450 nm) came out at 0.211 Abs 450 nm.

(Values after patent US20220356230A1.)
